Experimental data reported in patent US20040005671A1 (ZENYTH OPERATIONS, published 2004).

T1: VEGF-B186 (recombinant mature human, N-terminal His6-tagged, refolded homodimer from E. coli) (human, UniProt P49765 22-207, Refolded homodimer; one protomer given.)
T1 construct: not shown: N-terminal His6 tag coded by the pET15b vector
T1 sequence: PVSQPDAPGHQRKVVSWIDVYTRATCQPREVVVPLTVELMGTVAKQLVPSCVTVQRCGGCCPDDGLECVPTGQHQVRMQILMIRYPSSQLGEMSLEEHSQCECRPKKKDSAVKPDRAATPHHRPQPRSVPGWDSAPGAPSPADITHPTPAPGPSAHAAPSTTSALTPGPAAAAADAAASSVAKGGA

B1: VEGF-R1D2 (Ig domain 2 of human VEGF-R1, residues 129-229, from E. coli) (receptor, UniProt P17948 129-229, looked up)
chain: SDTGRPFVEMYSEIPEIIHMTEGRELVIPCRVTSPNITVTLKKFPLDTLIPDGKRIIWDSRKGFIISNATYKEIGLLTCEATVNGHLYKTNYLTHRQTNTI
notes: range 129-229; Cloned into pQE30; also called Flt-1 domain 2
B2: VEGF-B10-108 (truncated mature human VEGF-B, N-terminal His6-tagged, refolded homodimer from E. coli) (ligand, UniProt P49765 31-129, looked up)
chain: HQRKVVSWIDVYTRATCQPREVVVPLTVELMGTVAKQLVPSCVTVQRCGGCCPDDGLECVPTGQHQVRMQILMIRYPSSQLGEMSLEEHSQCECRPKKK
notes: not shown: additional 16 amino acids at the N-terminus which incorporate a His6 tag and a Genenase I cleavage site (pQE30)

How the values were obtained:
[1] = target: VEGF-R1-(hflt1-4)gp130 fusion: chimeric receptor of human VEGF-R1 Ig domains 1 to 4 with the transmembrane and cytoplasmic domains of gp130, on clone 2.1.19.25 cells (human); assay: cell-based or functional assay
[2] = target: VEGF-R1-(hflt1-4)gp130 fusion: chimeric receptor of human VEGF-R1 Ig domains 1 to 4 with the transmembrane and cytoplasmic domains of gp130, on clone 2.1.19.25 cells (human)
[3] = target: VEGF-R1D2 (Ig domain 2 of human VEGF-R1, residues 129-229, from E. coli) (human) (UniProt P17948); assay: SPR (Biacore), VEGF-B immobilised on a CM5 chip, VEGF-R1D2 in solution, Scatchard analysis at steady state
[4] = target: T1, VEGF-B186 (recombinant mature human, …); assay: as above
Description: (§1) For initial Biosensor analysis of the binding of the purified and refolded VEGF-B3 isoforms, surface plasmon resonance (Biosensor 2000; Biacore, Sweden) and recombinant VEGF-R1D2 are used. […] The three forms of VEGF-B were immobilized on separate channels of a CM5 sensor chip, while murine LIF was immobilized to a fourth channel to serve as a negative control. Interaction with VEGF-R1D2 was monitored on all channels simultaneously.
(§2) Purified VEGF-R1D2 is diluted to varying concentrations in 0.1% w/v BSA, 20 mM HEPES, 0.15 M NaCl, 0.005% w/v Tween 20, 3.4 mM EDTA, pH 7.4. […] Scatchard analysis is used to determine binding kinetics at steady state equilibrium.

[5] = target: B1; assay: as above
Description: as §1, §2

VEGF-R1-(hflt1-4)gp130 fusion: chimeric receptor of human VEGF-R1 Ig domains 1 to 4 with the transmembrane and cytoplasmic domains of gp130, on clone 2.1.19.25 cells (human), sequence (chain, as listed by the source mutant limits assumed, form in doubt): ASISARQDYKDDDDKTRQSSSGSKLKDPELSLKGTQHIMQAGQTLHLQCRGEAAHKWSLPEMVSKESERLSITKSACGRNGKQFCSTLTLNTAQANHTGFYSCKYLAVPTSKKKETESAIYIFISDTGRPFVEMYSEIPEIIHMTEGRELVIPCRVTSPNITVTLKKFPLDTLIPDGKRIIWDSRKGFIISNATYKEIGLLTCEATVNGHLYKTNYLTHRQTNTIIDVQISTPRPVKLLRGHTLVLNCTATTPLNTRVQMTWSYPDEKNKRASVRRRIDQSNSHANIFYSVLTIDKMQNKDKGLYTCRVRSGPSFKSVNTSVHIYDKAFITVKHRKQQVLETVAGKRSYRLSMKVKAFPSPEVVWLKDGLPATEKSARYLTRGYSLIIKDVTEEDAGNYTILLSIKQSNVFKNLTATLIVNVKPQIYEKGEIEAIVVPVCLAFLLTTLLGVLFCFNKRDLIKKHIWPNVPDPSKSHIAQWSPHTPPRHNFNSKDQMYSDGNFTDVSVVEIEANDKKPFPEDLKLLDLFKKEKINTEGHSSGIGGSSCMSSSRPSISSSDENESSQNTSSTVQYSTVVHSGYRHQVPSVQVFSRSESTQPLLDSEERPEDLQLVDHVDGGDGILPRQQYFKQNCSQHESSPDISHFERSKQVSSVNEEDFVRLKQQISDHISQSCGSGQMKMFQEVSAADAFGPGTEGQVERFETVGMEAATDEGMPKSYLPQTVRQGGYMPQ

## VEGF-A (ligand)
[1]
  luciferase, signal to background ratio, clone 2.1.19.25 cells: 2.5 to 3

## VEGF-B167 (recombinant, N-terminal His6-tagged, refolded homodimer from E. coli) (from UniProt P49765 22-207) (ligand)
[2]
  EC50 (read off the curve) (luciferase reporter, clone 2.1.19.25 cells; VEGF-B167 titrated in the presence of the control mAb at 50 µg/ml): 0.3 µg/mL
[1]
  ED50, luciferase, 2.1.19.25 cell-based assay: 0.15 to 0.3 µg/mL
[3]
  Kd: 1.5 nM

## B1
[4]
  Kd: 2 nM

## B2
[5]
  Kd: 0.8 nM
